Reference: the supplement of paper PMC7125110
± gives the standard error. For some assays here: Fewer inactive variants are shown than the library holds.

B1: glmS ribozyme (parent)
chain: AUAAAAGCGCCAGAACUACAGAAAUGUAGUUGACGAGGAGGAGGUUUAUCGAAUUUUCGGCGGAUGCCUCCAAA

Experiments:
Conditions in all cases: with glucosamine-6-phosphate
glucosamine-6-phosphate [1] = variants of: B1; experiment: kcat; higher = faster cleavage; RNA array
Procedure, shortened: (§1)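 E. coli RNA polymerase transcribed barcoded ribozyme variants in situ on sequenced MiSeq chips, which were tracked via a hybridised Cy3 probe at 37 °C. Tiles were imaged over ~14 h after glucosamine-6-phosphate (40 μM to 10 mM) in HEPES/KCl/Mg(OAc)2 buffer was flowed in. Normalised per-tile medians were fit to one- or two-exponential decays for kobs, and kcat and KM came from weighted Michaelis–Menten fits.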

glucosamine-6-phosphate [2] = variants of: B1; experiment: KM; higher = weaker cofactor use; RNA array
Procedure, shortened: as §1

glucosamine-6-phosphate [3] = variants of: B1; experiment: self-cleavage kobs at 40 uM GlcN6P; higher = faster cleavage; RNA array
Procedure, shortened: as §1

glucosamine-6-phosphate [4] = variants of: B1; experiment: self-cleavage kobs at 160 uM GlcN6P; higher = faster cleavage; RNA array
Procedure, shortened: as §1

glucosamine-6-phosphate [5] = variants of: B1; experiment: self-cleavage kobs at 640 uM GlcN6P; higher = faster cleavage; RNA array
Procedure, shortened: as §1

glucosamine-6-phosphate [6] = variants of: B1; experiment: self-cleavage kobs at 2500 uM GlcN6P; higher = faster cleavage; RNA array
Procedure, shortened: as §1

glucosamine-6-phosphate [7] = variants of: B1; experiment: self-cleavage kobs at 10000 uM GlcN6P; higher = faster cleavage; RNA array
Procedure, shortened: as §1

Row | Variant | kcat (glucosamine-6-phosphate [1]) | KM (glucosamine-6-phosphate [2]) | self-cleavage kobs at 40 uM GlcN6P (glucosamine-6-phosphate [3]) | self-cleavage kobs at 160 uM GlcN6P (glucosamine-6-phosphate [4]) | self-cleavage kobs at 640 uM GlcN6P (glucosamine-6-phosphate [5]) | self-cleavage kobs at 2500 uM GlcN6P (glucosamine-6-phosphate [6]) | self-cleavage kobs at 10000 uM GlcN6P (glucosamine-6-phosphate [7])
1 | A12C U45C | 0.00344 ± 0.0011 s⁻¹ | 7280 ± 3000 µM | 3e-05 ± 1.2e-05 s⁻¹ | 5.84e-05 ± 2.1e-05 s⁻¹ | 0.000289 ± 7.9e-05 s⁻¹ | 0.000907 ± 0.00016 s⁻¹ | 0.00194 ± 0.00049 s⁻¹
2 | G44U C70U | 3.72e-05 ± 5.6e-06 s⁻¹ |  | < 1e-05 s⁻¹ | < 1e-05 s⁻¹ |  | 3.43e-05 ± 1.1e-05 s⁻¹ | 3.29e-05 ± 6.6e-06 s⁻¹
3 | G32A C50A | < 1e-05 s⁻¹ |  |  |  |  |  | 
4 | A42G U65A | 0.00459 ± 0.0018 s⁻¹ |  | 0.000318 ± 9.9e-05 s⁻¹ | 0.000409 ± 8.8e-05 s⁻¹ | 0.00121 ± 0.00028 s⁻¹ | 0.00291 ± 0.00077 s⁻¹ | 0.00423 ± 0.0014 s⁻¹
5 | G29U U47G | 0.000866 ± 0.00021 s⁻¹ | 1600 ± 640 µM |  | 0.00011 ± 2.1e-05 s⁻¹ | 0.000215 ± 3.4e-05 s⁻¹ | 0.000515 ± 0.00015 s⁻¹ | 0.000787 ± 0.00012 s⁻¹
6 | A15C U46A | 0.000358 ± 0.00016 s⁻¹ |  |  |  | 0.000102 ± 2.1e-05 s⁻¹ | 0.000152 ± 3.8e-05 s⁻¹ | 0.000416 ± 9.4e-05 s⁻¹
7 | A39G A64G | 0.127 ± 0.027 s⁻¹ | 5960 ± 1400 µM | 0.000853 ± 0.00016 s⁻¹ | 0.00322 ± 0.00052 s⁻¹ | 0.0131 ± 0.0018 s⁻¹ | 0.0328 ± 0.0078 s⁻¹ | 0.0876 ± 0.026 s⁻¹
8 | C16G C58G | 6.23e-05 ± 1.2e-05 s⁻¹ |  | < 1e-05 s⁻¹ |  |  | 7.72e-05 ± 1.5e-05 s⁻¹ | 5.56e-05 ± 8.3e-06 s⁻¹
9 | G37A A53U C71U | 0.00135 ± 0.00053 s⁻¹ |  | 7.9e-05 ± 3.8e-05 s⁻¹ |  | 0.000464 ± 8.3e-05 s⁻¹ | 0.000695 ± 0.00015 s⁻¹ | 0.00165 ± 0.00033 s⁻¹
10 | U46C U57G | 1.4e-05 ± 2.4e-06 s⁻¹ |  |  |  |  |  | 
11 | G13C A14C U45A | 0.000417 ± 0.00017 s⁻¹ |  |  |  |  | 0.000212 ± 4.3e-05 s⁻¹ | 0.000262 ± 5.6e-05 s⁻¹
12 | U31A A39C | 0.00192 ± 0.00067 s⁻¹ | 2120 ± 1000 µM | 5.43e-05 ± 7.8e-06 s⁻¹ | 0.000105 ± 1.4e-05 s⁻¹ | 0.000525 ± 4.9e-05 s⁻¹ | 0.000973 ± 0.00011 s⁻¹ | 0.00166 ± 0.0003 s⁻¹
13 | A53U C67A | 0.00367 ± 0.00077 s⁻¹ | 785 ± 230 µM | 0.000214 ± 2.6e-05 s⁻¹ | 0.000559 ± 8.4e-05 s⁻¹ | 0.0014 ± 0.00022 s⁻¹ |  | 0.00376 ± 0.00054 s⁻¹
14 | C67G C70A | < 1e-05 s⁻¹ |  | < 1e-05 s⁻¹ |  | < 1e-05 s⁻¹ |  | < 1e-05 s⁻¹
15 | G7A U47G C61U | 1.24e-05 ± 4e-06 s⁻¹ |  |  |  |  |  | 
16 | U49C C71A | < 1e-05 s⁻¹ |  | < 1e-05 s⁻¹ |  | < 1e-05 s⁻¹ |  | 

Row | Variant | kcat (glucosamine-6-phosphate [1]) | KM (glucosamine-6-phosphate [2]) | self-cleavage kobs at 40 uM GlcN6P (glucosamine-6-phosphate [3]) | self-cleavage kobs at 160 uM GlcN6P (glucosamine-6-phosphate [4]) | self-cleavage kobs at 640 uM GlcN6P (glucosamine-6-phosphate [5]) | self-cleavage kobs at 2500 uM GlcN6P (glucosamine-6-phosphate [6]) | self-cleavage kobs at 10000 uM GlcN6P (glucosamine-6-phosphate [7])
17 | G7A A39G | 0.000288 ± 6.2e-05 s⁻¹ |  |  | < 1e-05 s⁻¹ |  |  | 2.51e-05 ± 7.3e-06 s⁻¹
18 | C50A C68A | 3.68e-05 ± 1.1e-05 s⁻¹ |  |  | 3.75e-05 ± 1.4e-05 s⁻¹ |  | 4.65e-05 ± 1.7e-05 s⁻¹ | 
19 | G9U A48U C58G C67U | < 1e-05 s⁻¹ |  | < 1e-05 s⁻¹ |  | < 1e-05 s⁻¹ |  | 
20 | A39C C58G | 1.1e-05 ± 2.2e-06 s⁻¹ |  |  |  |  |  | 
21 | A12U C50A | 0.000111 ± 2.6e-06 s⁻¹ | 1660 ± 130 µM |  |  | 3.27e-05 ± 1.3e-05 s⁻¹ | 6.47e-05 ± 1.4e-05 s⁻¹ | 9.58e-05 ± 1.2e-05 s⁻¹
22 | A15C U47G | 0.000994 ± 5.2e-05 s⁻¹ | 1270 ± 120 µM | 3.18e-05 ± 7.5e-06 s⁻¹ | 0.000121 ± 2e-05 s⁻¹ | 0.000312 ± 3.6e-05 s⁻¹ | 0.000675 ± 8.1e-05 s⁻¹ | 0.000889 ± 9.5e-05 s⁻¹
23 | A15U G66A | 0.00705 ± 0.002 s⁻¹ | 7800 ± 2800 µM | 4.82e-05 ± 1.6e-05 s⁻¹ | 0.000124 ± 2.4e-05 s⁻¹ | 0.000781 ± 0.00023 s⁻¹ | 0.00183 ± 0.00057 s⁻¹ | 0.00391 ± 0.00065 s⁻¹
24 | A6G A39G | 0.00207 ± 0.0008 s⁻¹ |  |  | 6.4e-05 ± 1.4e-05 s⁻¹ | 0.000144 ± 2.7e-05 s⁻¹ | 0.000791 ± 0.0001 s⁻¹ | 0.00121 ± 0.00015 s⁻¹
25 | U47A A52G | 0.00213 ± 0.00047 s⁻¹ | 5080 ± 1600 µM | 3.28e-05 ± 1.5e-05 s⁻¹ | 8.42e-05 ± 1.9e-05 s⁻¹ | 0.000221 ± 3.3e-05 s⁻¹ | 0.000661 ± 9.9e-05 s⁻¹ | 0.00146 ± 0.0002 s⁻¹
26 | C10G G59U | 3.49e-05 ± 2.3e-06 s⁻¹ | 1050 ± 290 µM | < 1e-05 s⁻¹ |  |  | 2.34e-05 ± 6.6e-06 s⁻¹ | 3.25e-05 ± 8.1e-06 s⁻¹
27 | U46C C68U | 0.000934 ± 0.0002 s⁻¹ | 1480 ± 580 µM | 2.43e-05 ± 7.6e-06 s⁻¹ | 7.49e-05 ± 1.3e-05 s⁻¹ | 0.000387 ± 6e-05 s⁻¹ | 0.000933 ± 0.00014 s⁻¹ | 0.000743 ± 7.7e-05 s⁻¹
28 | U55G C58A | 0.000783 ± 0.00021 s⁻¹ | 7730 ± 3000 µM |  | 2.76e-05 ± 1.3e-05 s⁻¹ | 6.45e-05 ± 1e-05 s⁻¹ | 0.000177 ± 2.2e-05 s⁻¹ | 0.000461 ± 6.3e-05 s⁻¹
29 | U31A A53U | 0.02 ± 0.007 s⁻¹ | 3760 ± 1700 µM | 0.000232 ± 3.6e-05 s⁻¹ | 0.000911 ± 0.00027 s⁻¹ | 0.00278 ± 0.00064 s⁻¹ | 0.00529 ± 0.0016 s⁻¹ | 0.0181 ± 0.0034 s⁻¹
30 | A12G C71U | 0.00146 ± 0.0001 s⁻¹ | 4370 ± 470 µM |  | 5.89e-05 ± 1.1e-05 s⁻¹ | 0.000183 ± 1.9e-05 s⁻¹ | 0.000525 ± 4.6e-05 s⁻¹ | 0.00102 ± 8.1e-05 s⁻¹
31 | C16U U46A | 0.00336 ± 0.00057 s⁻¹ | 2760 ± 760 µM | 5.67e-05 ± 1.4e-05 s⁻¹ | 0.00012 ± 5.1e-05 s⁻¹ | 0.000641 ± 0.00012 s⁻¹ | 0.00176 ± 0.00024 s⁻¹ | 0.00249 ± 0.00038 s⁻¹
